Measured values taken from patent publication US20170015742A1 (published 2017).

Legend:
VEGF-A = VEGF-A (UniProt P15692-4 27-191, limits assumed); assay: SPR (Biacore), DVD-Ig captured by anti-human Fc, antigen injected
Experimental: (§1) For example, approximately 9000 RU of goat anti-human Fc specific polyclonal antibody (Thermo Fisher Scientific Inc., Rockford, Ill.) diluted in 10 mM sodium acetate (pH 4.5) is directly immobilized across a CM5 research grade biosensor chip using a standard amine coupling kit according to manufacturer's instructions and procedures at 25 μg/ml. Unreacted moieties on the biosensor surface were blocked with ethanolamine. For kinetic analysis, rate equations derived from the 1:1 Langmuir binding model were fitted simultaneously to multiple antigen injections (using global fit analysis) with the use of Scrubber 2 (BioLogic Software), Biacore Biaevaluation 4.0.1 software or Biacore T100 Evaluation software. Purified antibodies or DVD-Ig molecules were diluted in running buffer for capture across goat anti-human Fc reaction surfaces. Antibodies or DVD-Ig molecules to be captured as a ligand (1 μg/ml) were injected over reaction matrices at a flow rate of 10 μl/minute. During the assay, all measurements were referenced against the capture surface alone (i.e., with no captured antibody or DVD-Ig molecule). […] The equilibrium dissociation constant KD (M) of the reaction between antibodies and the target antigen was then calculated from the kinetic rate constants by the following formula: KD=Koff/Kₒₙ. Binding was recorded as a function of time and kinetic rate constants were calculated.

PDGF-BB = PDGF-BB (UniProt P01127 82-190); assay: as above
Sequence of PDGF-BB (P01127 82-190): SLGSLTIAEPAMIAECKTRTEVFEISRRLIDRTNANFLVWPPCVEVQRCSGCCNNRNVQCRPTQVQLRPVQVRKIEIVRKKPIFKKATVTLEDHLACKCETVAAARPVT
Experimental: as §1

Sequence of VEGF-A (P15692 other isoform, or with tags, fused parts or gaps limits assumed): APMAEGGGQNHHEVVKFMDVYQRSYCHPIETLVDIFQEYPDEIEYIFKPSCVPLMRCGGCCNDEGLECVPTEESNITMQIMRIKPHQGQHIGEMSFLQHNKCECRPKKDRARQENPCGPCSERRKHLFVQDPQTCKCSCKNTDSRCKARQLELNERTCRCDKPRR

Binder | Kd (VEGF-A) | kon (VEGF-A) | Kd (PDGF-BB) | kon (PDGF-BB)
9E10.1_GS_9E8.4 (PR-1612491) (bispecific antibody, human IgG1, kappa, L234A L235A, DVD-Ig: outer hBEW-9E10.1 (VEGF), inner hBDI-9E8.4 (PDGF), linkers GS-H10 / GS-L10(dR); Human IgG1 L234A, L235A, H435A with kappa light chain) heavy: EIQLVQSGSELKKPGASVKVSCKASGYTFTNYGMYWVKQAPGQGLEYMGWIDTETGRPTYADDFKGRFVFSLDTSVSTAYLQISSLKAEDTAVYFCARWSGDTTGIRGPWFAYWGQGTLVTVSSGGGGSGGGGSEVTLRESGPALVKPTQTLTLTCTFSGFSLSTYGMGVGWIRQPPGKALEWLANIWWDDDKYYNPSLKNRLTISKDTSKNQVVLTMTNMDPVDTATYYCARIESIGTTYSFDYWGQGTMVTVSSASTKGPSVFPLAPSSKSTSGGTAALGCLVKDYFPEPVTVSWNSGALTSGVHTFPAVLQSSGLYSLSSVVTVPSSSLGTQTYICNVNHKPSNTKVDKKVEPKSCDKTHTCPPCPAPEAAGGPSVFLFPPKPKDTLMISRTPEVTCVVVDVSHEDPEVKFNWYVDGVEVHNAKTKPREEQYNSTYRVVSVLTVLHQDWLNGKEYKCKVSNKALPAPIEKTISKAKGQPREPQVYTLPPSREEMTKNQVSLTCLVKGFYPSDIAVEWESNGQPENNYKTTPPVLDSDGSFFLYSKLTVDKSRWQQGNVFSCSVMHEALHNAYTQKSLSLSPGK light: DIRMTQSPSSLSASVGDRVTIECLASEDIYSDLAWYQQKPGKSPKLLIYNANGLQNGVPSRFSGSGSGTDYSLTISSLQPEDVATYFCQQYNYFPGTFGQGTKLEIKGGSGGGGSGGEFVLTQSPGTLSLSPGERATLSCERSSGDIGDSYVSWYQQKPGQAPRLVIYADDQRPSGIPDRFSGSGSGTDFTLTISRLEPEDFAVYYCQSYDINIDIVFGGGTKVEIKRTVAAPSVFIFPPSDEQLKSGTASVVCLLNNFYPREAKVQWKVDNALQSGNSQESVTEQDSKDSTYSLSSTLTLSKADYEKHKVYACEVTHQGLSSPVTKSFNRGEC | 2.2 pM | 1.1e+07 M⁻¹ s⁻¹ | 25 pM | 6.8e+06 M⁻¹ s⁻¹
9E10.6_GS_3E2.1 (PR-1610563) (bispecific antibody, human IgG1, kappa, L234A L235A, DVD-Ig: outer hBEW-9E10.6 (VEGF), inner hBFU-3E2.1 (PDGF), linkers GS-H10 / GS-L10(dR); Human IgG1 L234A, L235A, H435A with kappa light chain) heavy: EVQLVQSGAEVKKPGSSVKVSCKASGYTFTNYGMYWVRQAPGQGLEWMGWIDTETGRPTYADDFKGRFTFTADKSTSTAYMELSSLRSEDTAVYYCARWSGDTTGIRGPWFAYWGQGTLVTVSSGGGGSGGGGSEVQLVQSGAEVKKPGSSVKVSCKASGYTFTESYMYWVKQAPGQGLELIGRIDPEDGSTDYVEKFKNKATLTADKSTSTAYMELSSLRSEDTAVYFCARFGARSYFYPMDAWGQGTTVTVSSASTKGPSVFPLAPSSKSTSGGTAALGCLVKDYFPEPVTVSWNSGALTSGVHTFPAVLQSSGLYSLSSVVTVPSSSLGTQTYICNVNHKPSNTKVDKKVEPKSCDKTHTCPPCPAPEAAGGPSVFLFPPKPKDTLMISRTPEVTCVVVDVSHEDPEVKFNWYVDGVEVHNAKTKPREEQYNSTYRVVSVLTVLHQDWLNGKEYKCKVSNKALPAPIEKTISKAKGQPREPQVYTLPPSREEMTKNQVSLTCLVKGFYPSDIAVEWESNGQPENNYKTTPPVLDSDGSFFLYSKLTVDKSRWQQGNVFSCSVMHEALHNAYTQKSLSLSPGK light: DIRMTQSPSSLSASVGDRVTITCLASEDIYSDLAWYQQKPGKSPKLLIYNANGLQNGVPSRFSGSGSGTDYTLTISSLQPEDVATYFCQQYNYFPGTFGQGTKLEIKGGSGGGGSGGETVLTQSPATLSLSPGERATLSCRASESVSTLMHWYQQKPGQQPRLLIYGASNLESGVPARFSGSGSGTDFTLTISSLEPEDFAVYFCQQSWNDPWTFGGGTKVEIKRTVAAPSVFIFPPSDEQLKSGTASVVCLLNNFYPREAKVQWKVDNALQSGNSQESVTEQDSKDSTYSLSSTLTLSKADYEKHKVYACEVTHQGLSSPVTKSFNRGEC | 3 pM | 8.6e+06 M⁻¹ s⁻¹ | 36 pM | 5.8e+06 M⁻¹ s⁻¹

Continued by falling Kd (VEGF-A), values first:

Kd (VEGF-A) | kon (VEGF-A) | Kd (PDGF-BB) | kon (PDGF-BB) | Binder
2.4 pM | 9.3e+06 M⁻¹ s⁻¹ | 21 pM | 4.1e+07 M⁻¹ s⁻¹ | 9E10.1_GS_3E2.1 (PR-1610562) (bispecific antibody, human IgG1, kappa, L234A L235A, DVD-Ig: outer hBEW-9E10.1 (VEGF), inner hBFU-3E2.1 (PDGF), linkers GS-H10 / GS-L10(dR); Human IgG1 L234A, L235A, H435A with kappa light chain) heavy: EIQLVQSGSELKKPGASVKVSCKASGYTFTNYGMYWVKQAPGQGLEYMGWIDTETGRPTYADDFKGRFVFSLDTSVSTAYLQISSLKAEDTAVYFCARWSGDTTGIRGPWFAYWGQGTLVTVSSGGGGSGGGGSEVQLVQSGAEVKKPGSSVKVSCKASGYTFTESYMYWVKQAPGQGLELIGRIDPEDGSTDYVEKFKNKATLTADKSTSTAYMELSSLRSEDTAVYFCARFGARSYFYPMDAWGQGTTVTVSSASTKGPSVFPLAPSSKSTSGGTAALGCLVKDYFPEPVTVSWNSGALTSGVHTFPAVLQSSGLYSLSSVVTVPSSSLGTQTYICNVNHKPSNTKVDKKVEPKSCDKTHTCPPCPAPEAAGGPSVFLFPPKPKDTLMISRTPEVTCVVVDVSHEDPEVKFNWYVDGVEVHNAKTKPREEQYNSTYRVVSVLTVLHQDWLNGKEYKCKVSNKALPAPIEKTISKAKGQPREPQVYTLPPSREEMTKNQVSLTCLVKGFYPSDIAVEWESNGQPENNYKTTPPVLDSDGSFFLYSKLTVDKSRWQQGNVFSCSVMHEALHNAYTQKSLSLSPGK light: DIRMTQSPSSLSASVGDRVTIECLASEDIYSDLAWYQQKPGKSPKLLIYNANGLQNGVPSRFSGSGSGTDYSLTISSLQPEDVATYFCQQYNYFPGTFGQGTKLEIKGGSGGGGSGGETVLTQSPATLSLSPGERATLSCRASESVSTLMHWYQQKPGQQPRLLIYGASNLESGVPARFSGSGSGTDFTLTISSLEPEDFAVYFCQQSWNDPWTFGGGTKVEIKRTVAAPSVFIFPPSDEQLKSGTASVVCLLNNFYPREAKVQWKVDNALQSGNSQESVTEQDSKDSTYSLSSTLTLSKADYEKHKVYACEVTHQGLSSPVTKSFNRGEC
2 pM | 1.1e+07 M⁻¹ s⁻¹ | 1.2 pM | 2.4e+07 M⁻¹ s⁻¹ | 9E10.6_GS_CL-33675 (PR-1612492) (bispecific antibody, human IgG1, kappa, L234A L235A, DVD-Ig: outer hBEW-9E10.6 (VEGF), inner CL-33675 (PDGF), linkers GS-H10 / GS-L10(dR); Human IgG1 L234A, L235A, H435A with kappa light chain) heavy: EVQLVQSGAEVKKPGSSVKVSCKASGYTFTNYGMYWVRQAPGQGLEWMGWIDTETGRPTYADDFKGRFTFTADKSTSTAYMELSSLRSEDTAVYYCARWSGDTTGIRGPWFAYWGQGTLVTVSSGGGGSGGGGSEVTLRESGPALVKPTQTLTLTCTFSGFSLSTYGMGVGWIRQPPGKALEWLANIWWDDDKYYNPSLKNRLTISKDTSKNQVVLTMTNMDPVDTATYYCARIESSGPKYSFDYWGQGTMVTVSSASTKGPSVFPLAPSSKSTSGGTAALGCLVKDYFPEPVTVSWNSGALTSGVHTFPAVLQSSGLYSLSSVVTVPSSSLGTQTYICNVNHKPSNTKVDKKVEPKSCDKTHTCPPCPAPEAAGGPSVFLFPPKPKDTLMISRTPEVTCVVVDVSHEDPEVKFNWYVDGVEVHNAKTKPREEQYNSTYRVVSVLTVLHQDWLNGKEYKCKVSNKALPAPIEKTISKAKGQPREPQVYTLPPSREEMTKNQVSLTCLVKGFYPSDIAVEWESNGQPENNYKTTPPVLDSDGSFFLYSKLTVDKSRWQQGNVFSCSVMHEALHNAYTQKSLSLSPGK light: DIRMTQSPSSLSASVGDRVTITCLASEDIYSDLAWYQQKPGKSPKLLIYNANGLQNGVPSRFSGSGSGTDYTLTISSLQPEDVATYFCQQYNYFPGTFGQGTKLEIKGGSGGGGSGGEIVLTQSPGTLSLSPGERATLSCRASSGSIWYSFVSWYQQKPGQAPRLLIYADDQRASGIPDRFSGSGSGTDFTLTISRLEPEDFAVYYCQSYGINIDVVFGGGTKVEIKRTVAAPSVFIFPPSDEQLKSGTASVVCLLNNFYPREAKVQWKVDNALQSGNSQESVTEQDSKDSTYSLSSTLTLSKADYEKHKVYACEVTHQGLSSPVTKSFNRGEC
1.8 pM | 9.7e+06 M⁻¹ s⁻¹ | 0.45 pM | 2e+07 M⁻¹ s⁻¹ | 9E10.1_GS_CL-33675 (PR-1610561) (bispecific antibody, human IgG1, kappa, L234A L235A, DVD-Ig: outer hBEW-9E10.1 (VEGF), inner CL-33675 (PDGF), linkers GS-H10 / GS-L10(dR); Human IgG1 L234A, L235A, H435A with kappa light chain; also called 9E10.1-GS-33675; hu VEGF 9E10.1-GS-hu PDGF 33675 [hu IgG1/k]; LALA H435A) heavy: EIQLVQSGSELKKPGASVKVSCKASGYTFTNYGMYWVKQAPGQGLEYMGWIDTETGRPTYADDFKGRFVFSLDTSVSTAYLQISSLKAEDTAVYFCARWSGDTTGIRGPWFAYWGQGTLVTVSSGGGGSGGGGSEVTLRESGPALVKPTQTLTLTCTFSGFSLSTYGMGVGWIRQPPGKALEWLANIWWDDDKYYNPSLKNRLTISKDTSKNQVVLTMTNMDPVDTATYYCARIESSGPKYSFDYWGQGTMVTVSSASTKGPSVFPLAPSSKSTSGGTAALGCLVKDYFPEPVTVSWNSGALTSGVHTFPAVLQSSGLYSLSSVVTVPSSSLGTQTYICNVNHKPSNTKVDKKVEPKSCDKTHTCPPCPAPEAAGGPSVFLFPPKPKDTLMISRTPEVTCVVVDVSHEDPEVKFNWYVDGVEVHNAKTKPREEQYNSTYRVVSVLTVLHQDWLNGKEYKCKVSNKALPAPIEKTISKAKGQPREPQVYTLPPSREEMTKNQVSLTCLVKGFYPSDIAVEWESNGQPENNYKTTPPVLDSDGSFFLYSKLTVDKSRWQQGNVFSCSVMHEALHNAYTQKSLSLSPGK light: DIRMTQSPSSLSASVGDRVTIECLASEDIYSDLAWYQQKPGKSPKLLIYNANGLQNGVPSRFSGSGSGTDYSLTISSLQPEDVATYFCQQYNYFPGTFGQGTKLEIKGGSGGGGSGGEIVLTQSPGTLSLSPGERATLSCRASSGSIWYSFVSWYQQKPGQAPRLLIYADDQRASGIPDRFSGSGSGTDFTLTISRLEPEDFAVYYCQSYGINIDVVFGGGTKVEIKRTVAAPSVFIFPPSDEQLKSGTASVVCLLNNFYPREAKVQWKVDNALQSGNSQESVTEQDSKDSTYSLSSTLTLSKADYEKHKVYACEVTHQGLSSPVTKSFNRGEC
